Values quoted from earlier work as cited in publication PMC5989558.

Target: CD80 (Homo sapiens) (UniProt P33681)
UniProt P33681, sequence (P33681 35-242): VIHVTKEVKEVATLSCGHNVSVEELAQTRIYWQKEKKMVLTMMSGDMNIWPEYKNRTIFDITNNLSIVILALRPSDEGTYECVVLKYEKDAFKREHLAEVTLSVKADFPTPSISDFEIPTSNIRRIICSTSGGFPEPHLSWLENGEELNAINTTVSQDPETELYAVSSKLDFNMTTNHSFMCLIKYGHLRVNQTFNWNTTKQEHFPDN

## CD28 (from UniProt P10747)
  Kd: 20 µM
